Source: IntAct's records for PubMed 14527422

B1: Cullin-3 (Schizosaccharomyces pombe (strain ATCC 38366 / 972)), Q09760 (parent)
chain: MQRSAKLKIRAPRKFSANQVDFATHWEVLQRAIGDIFQKSTSQLSFEELYRNAYILVLHKYGEKLYNHVQDVIRSRLKEETVPAIYKNYDASLLGNALLDIRKNDSYSTSWSRSLEAAHRFLSSLVNSWKDHIVSMQMISSVLKYLDKVYSKSADKVPVNENGIYIFREVVLLNSFEIGEKCVETILILVYLERKGNTINRPLINDCLDMLNSLPSENKKETLYDVLFAPKFLSYTRNFYEIESSTVIGVFGVVEYLKKAEKRFEEEKERSKNYLFTKIASPLLSVVEDELLSKHLDDLLENQSTGFFSMIDSSNFEGLQLVYESFSRVELGVKSLKKYLAKYVAHHGKLINETTSQALEGKMAVGRLSSNATMATLWVQKVLALWDRLNTIISTTMDADRSILNSLSDAFVTFVDGYTRAPEYISLFIDDNLKKDARKAIEGSIEATLQNSVTLFRFISEKDVFEKYYKTHLAKRLLNNRSISSDAELGMISRLKQEAGNVFTQKLEGMFNDMNLSQELLQEYKHNSALQSAKPALDLNVSILASTFWPIDLSPHKIKCNFPKVLLAQIDQFTDFYLSKHTGRKLLWYPSMGSADVRVNFKDRKYDLNVSTIASVILLLFQDLKENQCLIFEEILEKTNIEVGDLKRNLQSLACAKYKILLKDPKGREVNAGDKFYFNENFVSNLARIKISTVAQTRVEDDSERKRTLEKVDESRKHQADACIVRVMKDRKVCEHNQLMAEVTRQLNPRFHPSPMMIKRRIEALIEREYLQRQADNGRIYEYLA
partner: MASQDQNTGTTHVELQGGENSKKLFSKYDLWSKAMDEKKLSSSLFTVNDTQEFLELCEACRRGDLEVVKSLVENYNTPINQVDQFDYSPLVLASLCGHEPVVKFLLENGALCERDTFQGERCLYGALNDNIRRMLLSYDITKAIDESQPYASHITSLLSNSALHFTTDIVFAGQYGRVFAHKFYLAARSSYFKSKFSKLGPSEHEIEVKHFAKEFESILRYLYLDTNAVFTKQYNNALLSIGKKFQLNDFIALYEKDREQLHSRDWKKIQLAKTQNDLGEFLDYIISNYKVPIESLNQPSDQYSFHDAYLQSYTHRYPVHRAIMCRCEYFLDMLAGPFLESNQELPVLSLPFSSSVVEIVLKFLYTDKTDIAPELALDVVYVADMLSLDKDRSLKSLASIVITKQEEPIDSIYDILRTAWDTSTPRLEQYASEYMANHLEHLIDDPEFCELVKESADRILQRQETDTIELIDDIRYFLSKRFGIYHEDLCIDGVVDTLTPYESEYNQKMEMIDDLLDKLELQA
B2: BTB/POZ domain-containing protein 3 (Schizosaccharomyces pombe (strain ATCC 38366 / 972)), Q10225 (parent)
chain: B1 partner
partner: B1 chain

Variants of: B1
Conditions: with btb3_schpo btb3, Q10225

Row | Variant | effect of a mutation on the interaction
1 | Y50G | disrupting interaction

Variants of: B2
Conditions: with cul3_schpo cul3, Q09760

Row | Variant | effect of a mutation on the interaction
2 | MASQDQNTGTTHVELQGGENSKKLFSKYDLWSKAMDEKKLSSSLFTVNDTQEFLELCEACRRGDLEVVKSLVENYNTPINQVDQFDYSPLVLASLCGHEPVVKFLLENGALCERDTFQGERCLYGALNDNIRRMLLSYDITKAIDESQPYASHITSLLSNSALHFTTDIVFAGQYGRVFALKFYLAARSSYFKSKFSKLGPSEHEIEVKHFAKEFESILRYLYLDTNAVFTKQYNNALLSIGKKFQLNDFIALYEKDREQLHSRDWKKIQLAKTQNDLGEFLDYIISNYKVPIESLNQPSDQYSFHDAYLQSYTHRYPVHRAIMCRCEYFLDMLAGPFLESNQELPVLSLPFSSSVVEIVLKFLYTDKTDIAPELALDVVYVADMLSLDKDRSLKSLASIVITKQEEPIDSIYDILRTAWDTSTPRLEQYASEYMANHLEHLIDDPEFCELVKESADRILQRQETDTIELIDDIRYFLSKRFGIYHEDLCIDGVVDTLTPYESEYNQKMEMIDDLLDKLELQA [H181L] | disrupting interaction
3 | MASQDQNTGTTHVELQGGENSKKLFSKYDLWSKAMDEKKLSSSLFTVNDTQEFLELCEACRRGDLEVVKSLVENYNTPINQVDQFDYSPLVLASLCGHEPVVKFLLENGALCERDTFQGERCLYGALNDNIRRMLLSYDITKAIDESQPYASHITSLLSNSALHFTTAIVFAGQYGRVFAHKFYLAARSSYFKSKFSKLGPSEHEIEVKHFAKEFESILRYLYLDTNAVFTKQYNNALLSIGKKFQLNDFIALYEKDREQLHSRDWKKIQLAKTQNDLGEFLDYIISNYKVPIESLNQPSDQYSFHDAYLQSYTHRYPVHRAIMCRCEYFLDMLAGPFLESNQELPVLSLPFSSSVVEIVLKFLYTDKTDIAPELALDVVYVADMLSLDKDRSLKSLASIVITKQEEPIDSIYDILRTAWDTSTPRLEQYASEYMANHLEHLIDDPEFCELVKESADRILQRQETDTIELIDDIRYFLSKRFGIYHEDLCIDGVVDTLTPYESEYNQKMEMIDDLLDKLELQA [D168A] | disrupting interaction
